Data taken from the supplement of paper PMC9170038.

System: MS2 coat protein
Test: apparent KD of MS2 coat protein; designed switch direction (-1 OFF switch, 1 ON switch): 1; higher = weaker reporter binding
Summary of the method: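 SNAP-549-labelled MS2 coat protein was titrated, doubling from 0.7 or 1.5 nM to 3 µM, over designed RNA switches transcribed on Illumina chips by stalled E. coli RNA polymerase. Runs were done without input, with 200 uM small-molecule ligand, or with an oligonucleotide input. Apparent KD is the per-design median over clusters of curve-fitted normalised fluorescence.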

[1] = input ligand: microRNA oligo, concentration not stated
[2] = Eterna round: R95, input ligand: FMN 200 uM
[3] = Eterna round: R95, input ligand: microRNA oligo, concentration not stated
[4] = Eterna round: R95, input ligand: none

Sequence | apparent KD of MS2 coat protein (input ligand: FMN 200 uM) [nM] | apparent KD of MS2 coat protein [1] [nM] | apparent KD of MS2 coat protein (input ligand: none) [nM] | apparent KD of MS2 coat protein [2] [nM] | apparent KD of MS2 coat protein [3] [nM] | apparent KD of MS2 coat protein [4] [nM]
AUUAUUAAUGCAGGAUAUGAUUAACAUGAGGAUCACCCAUGUGGUGUUGUGAGUAAGGAGAGUGAUCAGAAGGGCAUUUUUUCU [JMF's solution 17] (Eterna round: R96, puzzle: Same State NG 2) | 558 | 442 | 585 | – | – | –
AUUCGUUUGAUAGGAUAUCACUUUACAUGAGGAUCACCCAUGUUCACCACGCUGGUUUCUUAUACUGAGAAGGAUCUUGAUGAC [JR_SSNG2_Sub010] (Eterna round: R96, puzzle: Same State NG 2) | 19.5 | 17.1 | 31.3 | – | – | –
AUUGCUUACGCAGGAUAUGAUGCGAAAAUUGCGUCAGAAGGGUGAAGUAUCUCAUUGCAACAGGACAUGAGGAUCACCCAUGUC [SameState NG1 #99] (Eterna round: R96, puzzle: Same State NG 1) | 150 | 303 | 455 | – | – | –
AUUGCUUACGCAGGAUAUGAUGCGGAAACUGCGUCAGAAGGGUGAACAGAAUCGUUGCAAGAAGACAUGAGGAUCACCCAUGUC [SameState NG1 #96] (Eterna round: R96, puzzle: Same State NG 1) | 33.9 | 33.5 | 44.4 | – | – | –
AUUGCUUUCGCAGGAUAUGAUGCGAAAAUUGCGUCAGAAGGGUGGAGUAUCUCAUUGCAACAGGACAUGAGGAUCACCCAUGUC [SameState NG1 #88] (Eterna round: R96, puzzle: Same State NG 1) | 56.7 | 140 | 248 | – | – | –
AUUUUUAAUGCAGGAUAUGAUUAACAUGAGGAUCACCCAUGUGGUGUUGUGAGUAAGGAGAGUGAUCAGAAGGGCAUUUUUUUA [JMF's solution 89] (Eterna round: R96, puzzle: Same State NG 2) | 1010 | 554 | 585 | – | – | –
CAAGAAAACGCAGGAUAUACUCGGGCUACCCGAGUAGAAGGGUGACACAUGAGGAUCACCCAUGUACAUAGCAUUAGCUAUGGA [Onedve] (Eterna round: R96, puzzle: Same State NG 1) | 2270 | 827 | 770 | – | – | –
CACAAUCUAUCUGAGGAUAUCAUGAAAAAAACAUGAGGAUCACCCAUGUGCAGGAAAACUGCAUAUGAGAAGGCAGAUAGAUUGG [salish99_SS2_r3_014] (Eterna round: R96, puzzle: Same State 2) | – | 504 | – | – | – | –
CACAAUCUAUCUGAGGAUAUCAUGAAAAAAACAUGAGGAUCACCCAUGUGCAGGAAAACUGCAUAUGAGAAGGCAGAUAGAUUGG [salish99_SS2_r3_014] (puzzle: Same State 2) | – | – | – | 29.7 | 577 | 1090
CACGUCUAGGUAGGAUAUGAGGUGCCACAGGGAAAAGCCUAUGGACAUGAGGAUCACCCAUGUCCUCAGAAGGGCCAGACGUGA [Inzala] (Eterna round: R96, puzzle: Same State NG 2) | 25.9 | 36.9 | 52.4 | – | – | –
CAGCACUGUCGAGAGGAUAUGCGGUGAUGGACAUGAGGAUCACCCAUGUUAGCGACAGCAUCACGGCAGAAGGCUCUGCUGCUGC [Soteed Omei mod 36] (puzzle: Same State 2) | – | – | – | – | 47.7 | –
CAGCGCUGUCGAGAGGAUAUGCGGUGAUGGACAUGAGGAUCACCCAUGUUAGCGGUAGCAUUACGGUAGAAGGCUCUACAGCUGC [Soteed - 3] (puzzle: Same State 2) | – | – | – | – | 24.7 | –
CCGUUCAAUAAACAUGAGGAUCACCCAUGUUAUAAUAUGGGUGAGGAUAUGCAUCUGAAACAGGUGCAGAAGGCAUAAGAGCGG [JL SSNG3 3.92] (Eterna round: R96, puzzle: Same State NG 3) | 214 | 37.7 | 100 | – | – | –
CCUUAACAUGAGGAUCACCCAUGUAACAAGGAGUAAGGAUAUACAUGGGAAAACAGUCAUGUAGAAGGUACAAAAG [Rexereon] (puzzle: Same State 1) | – | – | – | 15 | 11.8 | 18
CGCCAGAGAGCAGGAUAUGGGCCACGGCCUAAGGGCUGUGAACUCACAUGAGGAUCACCCAUGUCCCAGAAGGGCUCCUGGCGG [Veatzain] (Eterna round: R96, puzzle: Same State NG 2) | 62.4 | 1240 | 2110 | – | – | –
CGCCAGAGAGCAGGAUAUGGGCCACGGCCUAAGGGCUGUGAACUCACAUGAGGAUCACCCAUGUCCCAGAAGGGCUCCUGGCUA [Temabeanan] (Eterna round: R96, puzzle: Same State NG 2) | 112 | 1020 | 1180 | – | – | –
CGGACUCCCUUAGGAUAUGGGAAAGGAAGUGUACCAGAAGGAAGGGUUCCGAUCCUCCAACAUGAGGAUCACCCAUGUAUGAGG [PowerStrip SSNG 1.3] (Eterna round: R96, puzzle: Same State NG 1) | 16.3 | 21.3 | 22.6 | – | – | –
CGGCGCUGUCGAGAGGAUAUGCGGUGAUGGACAUGAGGAUCACCCAUGUUAGCGAUAGCAUUACGGUAGAAGGCUCCACAGCUGU [Soteed Omei mod 12] (puzzle: Same State 2) | – | – | – | 42.5 | 187 | 420
CGGCGUUGUCGAGAGGAUAUGCGGUGAUGGACAUGAGGAUCACCCAUGUUAGCGAUAGCAUUACGGUAGAAGGCUCUACAGCUGC [Soteed Omei mod 7] (puzzle: Same State 2) | – | – | – | – | 42.5 | –
CGGGAAAUCGUAGGAUAUCUAGGAUAUGAACGAGGAUCACCCGAGCAGCAUCAGCGCAUCAGAGGAGAGAAGGACGAUGAUGCG [pwkr ssNG2 2F5 2FMN.17] (Eterna round: R96, puzzle: Same State NG 2) | 327 | 273 | 65.7 | – | – | –
CGGGUACAUGAGGAUCACCCAUGUGGGAGAGAUGCAGGAUAUGUGGGAAAAGGGAAUGUAACAGAAGGGCAAGGAG [JR_SS!_Sub015] (puzzle: Same State 1) | – | – | – | 220 | 128 | 124
CGGGUACAUGAGGAUCACCCAUGUGGGAGGGAUGCAGGAUAUGUGGGAAAAGGGUAUGAAACAGAAGGGCAAGGAG [JR_SS!_Sub013] (puzzle: Same State 1) | – | – | – | 29.6 | 33.2 | 35.1
